Where no end group is shown, it is not given here.
Experiments:
[1] = target: FITC-labeled IcdH2 peptide (ICDH 125-137); assay: fluorescence polarisation; FITC-labeled peptide at 1 µM, TF serially diluted (0.1-1000 µM); 20 mM Tris pH 7.4, 100 mM NaCl; one-site binding model; apparent constants
[2] = target: FITC-labeled IcdH3 peptide (ICDH 177-194); assay: as above
[3] = target: FITC-labeled IcdH1 peptide (ICDH 55-70); assay: as above
[4] = target: T1, E. coli TF (trigger factor), full-length (Escherichia coli, UniProt P0A850); assay: Fluorescence polarization analysis of TF binding to FITC-labeled peptides; details: N-terminally FITC-labeled peptide 1 µM, full-length TF 0.1-1000 µM, 20 mM Tris pH 7.4, 100 mM NaCl, ex 485 nm / em 535 nm, one-site binding model, errors from three technical replicates
T1 construct: His6 (N); made in house
T1 sequence (P0A850 1-432): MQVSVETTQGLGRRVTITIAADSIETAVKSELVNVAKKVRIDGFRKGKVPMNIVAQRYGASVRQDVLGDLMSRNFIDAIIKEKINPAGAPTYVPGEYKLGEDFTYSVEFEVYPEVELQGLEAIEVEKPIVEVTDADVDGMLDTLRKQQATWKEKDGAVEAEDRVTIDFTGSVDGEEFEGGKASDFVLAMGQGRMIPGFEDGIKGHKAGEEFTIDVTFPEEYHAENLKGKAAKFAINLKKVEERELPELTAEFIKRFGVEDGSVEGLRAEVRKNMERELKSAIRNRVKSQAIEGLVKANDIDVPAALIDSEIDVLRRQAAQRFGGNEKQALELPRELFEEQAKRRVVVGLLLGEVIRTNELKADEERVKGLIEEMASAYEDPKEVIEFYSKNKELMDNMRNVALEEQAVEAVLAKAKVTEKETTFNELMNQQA
Procedure: A fraction of all these peptides were subsequently labeled with FITC at the N-terminus for fluorescence polarization (FP) measurements. […] For FP analysis, FITC-labeled peptides were dissolved in DMSO to yield a stock solution of 4 M. They were subsequently diluted by 20 mM Tris (pH 7.4) and 100 mM NaCl to yield a molar concentration of 100 µM . 200 µL of TF variants was transferred into a 96-well plate followed by serial dilution by the same buffer in a 1:1 dilution ratio. The final protein concentrations were between 0.1 and 1000 µM . After serial dilution, 50 µL of protein solutions of various protein concentrations was transferred to new wells by an eight-channel pipette and was mixed with FITC-labeled peptide solution to yield a peptide concentration of 1 µM . FP measurements of these samples were carried out using a plate reader (Paradigm, Molecular Device, USA) with an excitation wavelength of 485 nm and an emission wavelength of 535 nm. The integration time was set to 250 ms.

Row | Kd [1] [µM] | Kd [2] [µM] | Kd [3] [µM] | Substance | Kd [4] [µM]
1 | 8.6 | 132 | 28.2 | E. coli trigger factor (TF), full length (from UniProt P0A850 1-432) (natural protein) | 
2 |  |  |  | KAYKGERKISWMEIYT [IcdH1] | 28.2 ± 1
3 |  |  |  | KFLREEMGVKKIRFPEHC [IcdH3] | 132 ± 9
4 |  |  |  | YICLRPVRYYQGT [IcdH2] | 8.6 ± 0.3

Reference: PMC10539794, “Structural polymorphism and substrate promiscuity of a ribosome-associated molecular chaperone” (Magnetic resonance, 2021)
